Measured values taken from patent US20250376519A1 (JIANGSU HENGRUI PHARMACEUTICALS, published 2025).

T1: DLL1 (ACRO, DL1-H52H8) (human, UniProt O00548 18-540)
T1 construct: Bought; also called human DLL1
T1 sequence: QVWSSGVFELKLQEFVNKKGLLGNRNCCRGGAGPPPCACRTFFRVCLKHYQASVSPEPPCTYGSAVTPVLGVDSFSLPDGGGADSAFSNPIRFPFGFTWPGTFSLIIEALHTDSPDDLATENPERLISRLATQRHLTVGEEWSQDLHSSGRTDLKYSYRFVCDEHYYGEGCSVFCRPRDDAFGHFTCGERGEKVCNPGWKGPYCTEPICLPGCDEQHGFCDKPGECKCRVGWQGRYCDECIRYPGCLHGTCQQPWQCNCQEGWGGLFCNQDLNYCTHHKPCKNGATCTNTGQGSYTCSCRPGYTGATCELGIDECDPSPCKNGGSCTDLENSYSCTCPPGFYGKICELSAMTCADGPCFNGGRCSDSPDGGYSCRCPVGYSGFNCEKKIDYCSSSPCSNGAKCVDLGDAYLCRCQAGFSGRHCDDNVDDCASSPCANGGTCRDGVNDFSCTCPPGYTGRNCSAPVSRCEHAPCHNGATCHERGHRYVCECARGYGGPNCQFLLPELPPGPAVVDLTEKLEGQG

T2: cynomolgus monkey DLL3 (KACTUS, DLL-RM103) (cynomolgus monkey, UniProt Q9NYJ7 27-492 (human entry), limits assumed)
T2 construct: Bought
T2 chain: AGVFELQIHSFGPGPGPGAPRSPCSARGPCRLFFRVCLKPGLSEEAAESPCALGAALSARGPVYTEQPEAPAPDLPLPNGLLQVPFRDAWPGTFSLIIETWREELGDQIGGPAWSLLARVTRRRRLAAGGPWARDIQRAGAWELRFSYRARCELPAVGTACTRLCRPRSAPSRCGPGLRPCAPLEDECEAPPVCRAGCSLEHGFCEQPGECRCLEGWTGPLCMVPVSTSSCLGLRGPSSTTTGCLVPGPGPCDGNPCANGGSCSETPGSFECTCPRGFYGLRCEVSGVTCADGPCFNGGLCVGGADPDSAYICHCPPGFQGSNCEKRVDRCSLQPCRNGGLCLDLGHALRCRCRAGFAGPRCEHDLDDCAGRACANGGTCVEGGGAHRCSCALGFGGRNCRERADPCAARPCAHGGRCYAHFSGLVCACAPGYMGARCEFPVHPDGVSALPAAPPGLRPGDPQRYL

T3: mouse DLL3 (KACTUS, DLL-MM103) (mouse, UniProt O88516 33-490, limits assumed)
T3 construct: Bought
T3 sequence: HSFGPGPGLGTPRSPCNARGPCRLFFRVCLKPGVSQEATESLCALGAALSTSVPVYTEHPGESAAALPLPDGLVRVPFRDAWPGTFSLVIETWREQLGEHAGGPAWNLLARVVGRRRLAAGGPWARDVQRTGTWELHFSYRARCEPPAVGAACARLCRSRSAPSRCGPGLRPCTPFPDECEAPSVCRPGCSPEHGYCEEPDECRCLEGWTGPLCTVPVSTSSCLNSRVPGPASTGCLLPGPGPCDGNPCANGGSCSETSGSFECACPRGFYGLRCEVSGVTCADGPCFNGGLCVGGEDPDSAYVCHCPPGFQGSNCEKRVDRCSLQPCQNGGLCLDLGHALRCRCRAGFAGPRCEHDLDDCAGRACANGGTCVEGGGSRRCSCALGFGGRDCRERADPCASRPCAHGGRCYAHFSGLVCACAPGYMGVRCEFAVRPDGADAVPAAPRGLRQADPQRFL


Experiments:
DLL1 (ACRO, DL1-H52H8) = target: T1, DLL1 (ACRO, DL1-H52H8); assay: ELISA, DLL1 coated at 1 µg/mL, detection with anti-human IgG (H+L)-HRP, OD450
Method: (§1) DLL1 (ACRO, DL1-H52H8, 1 μg/mL) and DLL4 (ACRO, DL4-H5227, 1 μg/mL) were plated at 100 μL/well, and the plates were incubated overnight at 4° C. The plates were washed 3 times with 250 μL of PBST solution (PBS containing 0.1% Tween 20) per well. The plates were blocked with 250 μL of 5% milk per well at 37° C. for 2 h. The plates were washed 3 times with 250 μL of PBST solution per well. Test antibodies (maximum concentration 100 nM, serially diluted 4-fold) were added, and the plates were incubated at 37° C. for 1 h. The plates were washed 6 times with 250 μL of PBST solution per well. […] The plates were washed 6 times with 250 μL of PBST solution per well. TMB (KPL, 5120-0077) substrate solution was added at 100 μL/well, and color development was performed at room temperature for 5-10 min. 1 M H₂SO₄ was added at 100 μL/well to stop the color development, and microplate reader (Molecular Devices, VERSA max) readings at 450 nm were taken.

DLL4 (ACRO, DL4-H5227) = target: T4, DLL4 (ACRO, DL4-H5227) (human, UniProt Q9NR61 27-524); assay: ELISA, DLL4 coated at 1 µg/mL, detection with anti-human IgG (H+L)-HRP, OD450
T4 construct: Bought; also called human DLL4
T4 sequence (Q9NR61 27-524 limits assumed): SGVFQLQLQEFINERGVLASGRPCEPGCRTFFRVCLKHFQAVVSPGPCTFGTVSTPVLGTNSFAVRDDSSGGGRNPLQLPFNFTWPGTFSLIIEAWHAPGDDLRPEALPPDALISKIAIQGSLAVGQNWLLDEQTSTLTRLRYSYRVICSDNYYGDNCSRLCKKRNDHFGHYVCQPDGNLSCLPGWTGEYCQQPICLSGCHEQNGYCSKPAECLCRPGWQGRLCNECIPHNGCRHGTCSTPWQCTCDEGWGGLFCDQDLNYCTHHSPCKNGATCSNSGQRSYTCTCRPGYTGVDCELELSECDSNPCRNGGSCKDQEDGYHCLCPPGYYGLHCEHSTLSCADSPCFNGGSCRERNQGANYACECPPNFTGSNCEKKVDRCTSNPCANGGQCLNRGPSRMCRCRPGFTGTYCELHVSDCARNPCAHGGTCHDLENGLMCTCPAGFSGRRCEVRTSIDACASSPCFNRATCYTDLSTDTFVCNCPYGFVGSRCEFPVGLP
Method: as §1

CD3 on Jurkat cells = target: T5, CD3 on Jurkat cells (human); assay: flow cytometry, Jurkat cells
T5 construct: whole, on cells; also called CD3-expressing Jurkat cells
T5 sequence (P07766 23-207, chain 1 of 4): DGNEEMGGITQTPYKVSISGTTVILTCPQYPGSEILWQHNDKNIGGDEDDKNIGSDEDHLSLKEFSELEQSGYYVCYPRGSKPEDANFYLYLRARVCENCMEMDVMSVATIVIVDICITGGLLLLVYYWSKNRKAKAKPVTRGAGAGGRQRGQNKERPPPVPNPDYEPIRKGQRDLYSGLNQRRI
T5 sequence (P09693 23-182, chain 2 of 4, further chain): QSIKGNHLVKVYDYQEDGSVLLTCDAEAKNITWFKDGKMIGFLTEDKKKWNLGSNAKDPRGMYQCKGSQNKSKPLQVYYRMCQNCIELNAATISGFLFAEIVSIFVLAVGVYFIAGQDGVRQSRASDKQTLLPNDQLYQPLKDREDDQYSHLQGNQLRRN
T5 sequence (P04234 22-171, chain 3 of 4, further chain): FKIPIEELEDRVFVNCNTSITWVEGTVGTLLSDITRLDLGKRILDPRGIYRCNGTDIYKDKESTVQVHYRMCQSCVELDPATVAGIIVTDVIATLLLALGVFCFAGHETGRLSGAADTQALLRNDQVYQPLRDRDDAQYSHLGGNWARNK
T5 sequence (P20963 22-164, chain 4 of 4, further chain): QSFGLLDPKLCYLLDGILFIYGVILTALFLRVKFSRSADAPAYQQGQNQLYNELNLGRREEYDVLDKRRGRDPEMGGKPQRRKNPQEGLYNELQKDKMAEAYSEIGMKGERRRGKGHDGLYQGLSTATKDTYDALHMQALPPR

[1] = target: T6, monkey CD3D&3E (ACRO, CDD-C52W4) (cynomolgus monkey, UniProt Q95LI8 22-105; Q95LI5 22-117); assay: SPR Biacore 8K, Ab captured on Protein A
T6 construct: bought CD3 delta/epsilon protein; also called cynomolgus monkey CD3
T6 sequence (Q95LI8 22-105, chain 1 of 2): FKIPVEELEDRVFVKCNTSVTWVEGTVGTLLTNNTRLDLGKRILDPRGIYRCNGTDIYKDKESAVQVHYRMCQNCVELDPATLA
T6 sequence (Q95LI5 22-117, chain 2 of 2): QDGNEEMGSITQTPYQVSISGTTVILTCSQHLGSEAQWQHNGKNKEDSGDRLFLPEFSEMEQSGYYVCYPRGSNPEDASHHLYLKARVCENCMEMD
Method in brief: (§2)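 Antibodies captured on a Protein A chip for 18 s; DLL3 or CD3D&3E antigen flowed 180 s, then 600 s dissociation, with real-time detection. Regeneration used 10 mM glycine-HCl pH 1.5 between cycles. Kinetics were obtained by 1:1 model fitting.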

[2] = target: T2, cynomolgus monkey DLL3 (KACTUS, …); assay: SPR Biacore 8K, Ab captured on Protein A
Method in brief: as §2

[3] = target: T3, mouse DLL3 (KACTUS, DLL-MM103); assay: SPR Biacore 8K, Ab captured on Protein A
Method in brief: as §2

Binder	binding result (DLL1 (ACRO, DL1-H52H8))	binding result (DLL4 (ACRO, DL4-H5227))	EC50 (CD3 on Jurkat cells) [nM]	Kd [1] [nM]	Kd [2] [nM]	binding result [3]	koff [1] [s⁻¹]	kon [1] [M⁻¹ s⁻¹]	koff [2] [s⁻¹]	kon [2] [M⁻¹ s⁻¹]
hu110-I2C-Y body (bispecific antibody, Format 2 (Y body: DLL3 Fab-Fc hole + CD3 scFv-Fc knob)) light: NIVMTQSPKSLAVSLGERATINCKASENVGIFVSWYQQKPGQSPKLLIYGASNRYTGVPDRFSGSGSATDFTLTISSLQAEDVADYYCGQSHSYPLTFGQGTKLEIKRTVAAPSVFIFPPSDEQLKSGTASVVCLLNNFYPREAKVQWKVDNALQSGNSQESVTEQDSKDSTYSLSSTLTLSKADYEKHKVYACEVTHQGLSSPVTKSFNRGEC heavy: EVQLVQSGAEVKKPGASVKVSCKTSGYTFTDYYMNWVRQAPGQSLEWMGIINPYQGGTSYTQKFKGRVTITVDKSASTAYMELSSLRSEDTAVYYCARHFYDSSYLTYSTMDYWGQGTTVTVSSASTKGPSVFPLAPSSKSTSGGTAALGCLVKDYFPEPVTVSWNSGALTSGVHTFPAVLQSSGLYSLSSVVTVPSSSLGTQTYICNVNHKPSNTKVDKKVEPKSCDKTHTCPPCPAPEAAGGPSVFLFPPKPKDTLMISRTPEVTCVVVDVSHEDPEVKFNWYVDGVEVHNAKTKPREEQYNSTYRVVSVLTVLHQDWLNGKEYKCKVSNKALPAPIEKTISKAKGQPREPQVCTLPPSREEMTKNQVSLSCAVKGFYPSDIAVEWESNGQPENNYKTTPPVLDSDGSFFLVSKLTVDKSRWQQGNVFSCSVMHEALHNHYTQKSLSLSPGK not shown	no binding	no binding (tested: log[antibody, nM] 2 (100 nM))	3.83	2.32	0.762	no binding				
hu110-S107E-hot Ig (bispecific antibody, Format 1 (Hot-Ig, Titin/Obscurin-replaced DLL3 Fab), DLL3 x CD3) light 1: NIVMTQSPKSLAVSLGERATINCKASENVGIFVSWYQQKPGQSPKLLIYGASNRYTGVPDRFSGSGSATDFTLTISSLQAEDVADYYCGQSHSYPLTFGQGTKLEIKGGGGSSGAPRFLTRPKASVVSVGKDATLSCQIVGNPFPQVSWEKDKQPVTAGVRFRLAQDGDLYRLKILDLQLSDSGQYVCRARNAHGEAFACLGLQVDAEA heavy 1: EVQLVQSGAEVKKPGASVKVSCKTSGYTFTDYYMNWVRQAPGQSLEWMGIINPYQGGTSYTQKFKGRVTITVDKSASTAYMELSSLRSEDTAVYYCARHFYDSSYLTYSTMDYWGQGTTVTVSSGGGGSGIPPKIECLPIDISIDEGKVLTVASAFTGEPTPEVTWSTGGRKIHSQEQGRFHIENTDDSTTLTIKDVQKQDGGLYTLTLRNEFGSDSATVNIHIRSIDKTHTCPPCPAPEAAGGPSVFLFPPKPKDTLMISRTPEVTCVVVDVSHEDPEVKFNWYVDGVEVHNAKTKPREEQYNSTYRVVSVLTVLHQDWLNGKEYKCKVSNKALPAPIEKTISKAKGQPREPQVCTLPPSREEMTKNQVSLSCAVKGFYPSDIAVEWESNGQPENNYKTTPPVLDSDGSFFLVSKLTVDKSRWQQGNVFSCSVMHEALHNHYTQKSLSLSPGK heavy 2: not shown light 2: not shown	no binding	no binding (tested: log[antibody, nM] 2 (100 nM))	7.74	39.6	0.523	no binding	0.007	177000	6.43e-05	123000
hu110-I2C-hot Ig (bispecific antibody, Format 1 (Hot-Ig, Titin/Obscurin-replaced DLL3 Fab), DLL3 x CD3) light 1: NIVMTQSPKSLAVSLGERATINCKASENVGIFVSWYQQKPGQSPKLLIYGASNRYTGVPDRFSGSGSATDFTLTISSLQAEDVADYYCGQSHSYPLTFGQGTKLEIKGGGGSSGAPRFLTRPKASVVSVGKDATLSCQIVGNPFPQVSWEKDKQPVTAGVRFRLAQDGDLYRLKILDLQLSDSGQYVCRARNAHGEAFACLGLQVDAEA heavy 1: EVQLVQSGAEVKKPGASVKVSCKTSGYTFTDYYMNWVRQAPGQSLEWMGIINPYQGGTSYTQKFKGRVTITVDKSASTAYMELSSLRSEDTAVYYCARHFYDSSYLTYSTMDYWGQGTTVTVSSGGGGSGIPPKIECLPIDISIDEGKVLTVASAFTGEPTPEVTWSTGGRKIHSQEQGRFHIENTDDSTTLTIKDVQKQDGGLYTLTLRNEFGSDSATVNIHIRSIDKTHTCPPCPAPEAAGGPSVFLFPPKPKDTLMISRTPEVTCVVVDVSHEDPEVKFNWYVDGVEVHNAKTKPREEQYNSTYRVVSVLTVLHQDWLNGKEYKCKVSNKALPAPIEKTISKAKGQPREPQVCTLPPSREEMTKNQVSLSCAVKGFYPSDIAVEWESNGQPENNYKTTPPVLDSDGSFFLVSKLTVDKSRWQQGNVFSCSVMHEALHNHYTQKSLSLSPGK heavy 2: not shown light 2: not shown	no binding	no binding (tested: log[antibody, nM] 2 (100 nM))	3.27	1.5	0.616	no binding				
